Patent publication US20220326223

Biological target: human APP (695 amino acid isoform), P05067

B1: human ADAMTS4 (A disintegrin and metalloproteinase with thrombospondin motifs 4) (protein)
chain: FASLSRFVETLVVADDKMAAFHGAGLKRYLLTVMAAAAKAFKHPSIRNPVSLVVTRLVILGSGEEGPQVGPSAAQTLRSFCAWQRGLNTPEDSDPDHFDTAILFTRQDLCGVSTCDTLGMADVGTVCDPARSCAIVEDDGLQSAFTAAHELGHVFNMLHDNSKPCISLNGPLSTSRHVMAPVMAHVDPEEPWSPCSARFITDFLDNGYGHCLLDKPEAPLHLPVTFPGKDYDADRQCQLTFGPDSRHCPQLPPPCAALWCSGHLNGHAMCQTKHSPWADGTPCGPAQACMGGRCLHMDQLQDFNIPQAGGWGPWGPWGDCSRTCGGGVQFSSRDCTRPVPRNGGKYCEGRRTRFRSCNTEDCPTGSALTFREEQCAAYNHRTDLFKSFPGPMDWVPRYTGVAPQDQCKLTCQARALGYYYVLEPRVVDGTPCSPDSSSVCVQGRCIHAGCDRIIGSKKKFDKCMVCGGDGSGCSKQSGSFRKFRYGYNNVVTIPAGATHILVRQQGNAGHRSIYLALKLPDGSYALNGEYTLMPSPTDVVLPGAVSLRYSGATAASETLSGHGPLAQPLTLQVLVAGNPQDTRLRYSFFVPRPTPSTPRPTPQDWLHRRAQILEILRRRPWAGRK
  production amounts of APP669-711 (Aβ(-3-40)) and APP669-709 (Aβ(-3-38)) in culture supernatant (IP-MS), ADAMTS4 vector:empty vector 10:1 in APP stable HEK: tended to be rather slightly increased
